Data on 1 molecule can be found in publication PMC5748854 (The Journal of Experimental Medicine, 2018).

The assay has as its target C-PfCSP (recombinant PfCSP C terminus, linker and αTSR subdomains) (Plasmodium falciparum NF54, UniProt P19597). The experiment in a line: ELISA. For orientation: An ELISA detects its analyte on a solid surface through an enzyme-linked reagent.

B1: 1710 IgG (antibody, V domains shown)
VH: EVQLQESGGGLVKPGGSLRLSCAASGFTFSSYSMNWVRQAPGKGLEWVSSITSSSSYIYYADSVKGRFTISRDNAKNSLYLQMNSLRAEDTAVYYCARDPGIAAADNHWFDPWGQGTLVTVSS
VL: not shown
In the case of B1, the binding result was “binds”.
